The numbers were not newly measured in publication PMC6126569, which cites them from elsewhere.

Several values for one entry are separate records, joined by “and”; a condition that tells them apart may be missing. Identical values can stand only once.

The data set concerns the target Bac7 (Bos taurus) (UniProt P19661). In words: SRCD.

Sequence of SbmA (P0AFY6 whole entry): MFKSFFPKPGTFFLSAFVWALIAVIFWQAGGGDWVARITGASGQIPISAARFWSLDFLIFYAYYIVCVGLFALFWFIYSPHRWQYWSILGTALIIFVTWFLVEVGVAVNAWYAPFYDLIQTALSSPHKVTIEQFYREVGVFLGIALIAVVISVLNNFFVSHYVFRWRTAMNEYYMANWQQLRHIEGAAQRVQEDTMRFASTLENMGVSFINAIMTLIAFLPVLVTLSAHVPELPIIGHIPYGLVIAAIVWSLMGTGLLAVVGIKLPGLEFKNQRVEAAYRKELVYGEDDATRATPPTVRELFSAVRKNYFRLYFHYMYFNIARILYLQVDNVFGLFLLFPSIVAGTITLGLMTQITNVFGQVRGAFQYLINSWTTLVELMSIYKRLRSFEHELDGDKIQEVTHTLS
Sequence of Bac7 (Bos taurus) (P19661 131-189): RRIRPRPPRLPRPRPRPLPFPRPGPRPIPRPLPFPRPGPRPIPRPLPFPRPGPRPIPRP

SbmA (from UniProt P0AFY6): the Kd is 260 nM and 280 nM.
